Data on 3 molecules can be found in patent publication US20130004505A1 (CELLTRION, published 2013).

Where a chain is given by its changes, count along the chain named.

Common to all, as to assay: cell-based or functional assay
In assay [1] the target is HA of influenza A virus H5N1 A/Vietnam/1203/04, on virus (influenza A virus H5N1 …).
Assay [2] deals with HA of influenza A virus H1N1 A/Solomon Islands/3/2006 (seasonal), on virus (influenza A virus H1N1 (A/Solomon …)).
Assay [3] addresses T1, HA of influenza A virus H1N1 A/Texas/05/2009-RG15 (pandemic), on virus (influenza A virus H1N1 …).
For assay [4], the target named is T2, HA of influenza A virus H1N1 A/New York/18/2009-RG18 (pandemic), on virus (influenza A virus H1N1 (A/New …)).
The target of assay [5] is HA of influenza A virus H2N2 A/Ann Arbor/6/60 ca, on virus (influenza A virus H2N2 (A/Ann …)).
Assay [6] concerns the target HA of influenza A virus H5N1 A/Anhui/1/05, on virus (influenza A virus H5N1 (A/Anhui/1/05)).
The target of assay [7] is HA of influenza A virus H3N2 A/Wisconsin/67/2005, on virus (influenza A virus H3N2 …).
Assay [8] deals with HA of influenza A virus H1N1 A/Ohio/83 (seasonal), on virus (influenza A virus H1N1 (A/Ohio/83)).
Assay [9] has as its target T1, HA of influenza A virus H1N1 …. This is another data set of the same source.
For assay [10], the target named is T2, HA of influenza A virus H1N1 A/New …. The source holds these as a separate data set.
In assay [11] the target is T1, HA of influenza A virus H1N1 …. This is another data set of the same source.
The target in assay [12] is T2, HA of influenza A virus H1N1 A/New …. This is another data set of the same source.

B1: CT120 antibody (antibody, V domains shown)
VH: QVQLVQSGAEVKMPGSSVKVSCKTSGVFFSSHAISWVRQAPGQGLEWMGGISPMFGTTHYAQKFQGRVTITADQSTTTAYMELTSLTSEDTAVYYCARDGAGSYYPLNWFDPWGQGTLVTVSS
VL: EIVLTQSPATLSLSPGERATLSCRASENIWNNLAWYQQKPGQAPRLLISGASTGATGVPSRFRGSGSRTEFTLTISSLQSEDFAIYFCQQYNSWPRTFGPGTKVEIKR
For B1, the “MN assay: lowest antibody concentration at which no virus antigen was detected” value in [1] amounted to 1.25 µg/mL; in assay [2], 0.625 µg/mL; in assay [3], 0.313 µg/mL; in assay [4], 0.313 µg/mL; in assay [5], 2.5 µg/mL; in assay [6] it was 0.625 µg/mL. For the same molecule, the “MN assay: lowest antibody concentration at which no virus antigen was detected” value in assay [7] is above 10 µg/mL; in assay [8], 0.156 µg/mL. The “Antibody concentration* (neutralizing antibody concentration)” value (“Antibody concentration*” below) in [9] was determined as 0.156 µg/mL; in assay [10] it was 0.313 µg/mL. The “IC50 of neutralizing activity” value stood at 0.15 µg/mL in assay [9] and 0.31 µg/mL in [10]. For the same molecule, the “Hemagglutination-inhibition test: hemagglutination inhibition end point” value (shortened to “Hemagglutination-inhibition test”) in assay [11] and in assay [12] was above 20 µg/mL each time.

B2: CT104 antibody (antibody, V domains shown)
VH: QVQLVQSGAEVKKPGSSVKVSCKASGGTLNNYAISWVRQAPGQGLEWMGGISPIFGTLNYAERFQGRVTITADVFTNTVYMELSSLRSEDTAVYFCARGCGYNCYYFDGWGQGTLVTVSS
VL: EIVLTQSPGTLSLSPGERATLSCRASQSLSSSSLVWYQQKPGQAPRLLIYGASSRATGIPDRFSGSGSGTDFTLTISRLEPEDFAVYYCQQYGNSPYTFGQGTQVEIKR
With B2, the “MN assay: lowest antibody concentration at which no virus antigen was detected” value was 1.25 µg/mL in assay [1]; 0.625 µg/mL in assay [2]; 0.313 µg/mL in assay [3]; 0.625 µg/mL in assay [4]; above 10 µg/mL in [5]; 0.625 µg/mL in [6]. Also, the figures for the “MN assay: lowest antibody concentration at which no virus antigen was detected” value in [7] and in assay [8] were above 10 µg/mL and 0.313 µg/mL, respectively. Besides, the “Antibody concentration*” value in assay [9] turned out to be 0.313 µg/mL; in assay [10], 1.25 µg/mL. Moreover, the “IC50 of neutralizing activity” value in [9] is 0.29 µg/mL; in assay [10] it was 0.56 µg/mL. Also, the “Hemagglutination-inhibition test” value in assay [11] and in assay [12] was above 20 µg/mL throughout.

B3: CT123 antibody (antibody, V domains shown)
VH: QVQLVESGGGVVQPGRSLRLSCAASGFTFSRFGIHWVRQAPGKGLEWMAVIWYDGSNKFYADSVKGRFTISRDNSKNTVYLQMNSLRAEDTAVYYCAKDSRGYCSSIICFEGGLDNWGQGTLVTVSS
VL: B2 VL with I2T, L29V, S31I, S33Y, V35A, Q39R, S54R, N94S, Q104K, V105L
Regarding B3, the “MN assay: lowest antibody concentration at which no virus antigen was detected” value in assay [1] was above 10 µg/mL; in assay [2] it was 1.25 µg/mL; in assay [3], 0.313 µg/mL; in assay [4], 0.625 µg/mL; in assay [5], above 10 µg/mL; in assay [6], above 10 µg/mL. Besides, the “MN assay: lowest antibody concentration at which no virus antigen was detected” value is above 10 µg/mL in [7] and 0.313 µg/mL in assay [8]. The entries for the “Antibody concentration*” value in assay [9] and in assay [10] were 0.625 µg/mL and 1.25 µg/mL, respectively. Moreover, the “IC50 of neutralizing activity” value in assay [9] turned out to be 0.068 µg/mL; in [10] it was 0.29 µg/mL. In addition, the “Hemagglutination-inhibition test” value in assay [11] and in [12] was above 20 µg/mL in each case.
